Experimental data as given in the supplement of paper PMC10065799, “High-throughput profiling of sequence recognition by tyrosine kinases and SH2 domains using bacterial peptide display” (eLife, 2023).

Biological target: Hck (UniProt P08631)
Experiment: phosphorylation enrichment, bacterial display (enrichment ratio); higher = better substrate or ligand; peptides without Tyr show the background
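Note: 11-residue human phosphosite peptides and single-mutation variants displayed on the E. coli surface, counted by deep sequencing, each peptide's frequency after selection divided by its frequency in the unselected input library; frequency after pTyr selection over input frequency; kinase dosed for 20-30% of maximal phosphorylation in three min.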

Hck, sequence (P08631 whole entry, looked up): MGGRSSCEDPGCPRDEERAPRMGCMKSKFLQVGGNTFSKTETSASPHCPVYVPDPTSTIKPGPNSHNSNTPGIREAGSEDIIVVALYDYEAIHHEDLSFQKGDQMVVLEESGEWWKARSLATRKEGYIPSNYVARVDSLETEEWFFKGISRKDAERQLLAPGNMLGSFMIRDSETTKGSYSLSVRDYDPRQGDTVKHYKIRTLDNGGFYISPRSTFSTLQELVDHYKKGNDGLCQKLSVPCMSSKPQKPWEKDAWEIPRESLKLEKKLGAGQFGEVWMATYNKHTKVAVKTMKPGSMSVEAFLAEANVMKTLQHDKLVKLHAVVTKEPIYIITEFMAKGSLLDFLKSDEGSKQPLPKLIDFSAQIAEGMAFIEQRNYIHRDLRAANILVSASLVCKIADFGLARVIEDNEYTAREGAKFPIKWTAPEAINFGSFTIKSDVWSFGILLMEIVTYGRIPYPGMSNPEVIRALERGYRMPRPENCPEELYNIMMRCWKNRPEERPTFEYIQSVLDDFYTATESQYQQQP

Going from QLHEHCKIHKE [NSMAF_Y626_Y626C] to QPRDIYHQTWA [GBA_Y244_G241R], the phosphorylation enrichment rises from 0.649 to 2.72.

First: TKHTFYKQPMF [GBA_Y451_D448H]
Second: KAPPTYDNVLQ [CYP3A4_Y347_T349N]
The phosphorylation enrichment of the first is lower: 0.475 for the first, 1.68 for the second.

Compared with RGRKVYLEGGF [PRIM2_Y201_D204G], NTFEKYLEEEF [TF_Y669_G671E_YF] is lower in phosphorylation enrichment: 0.858 for the first, 0.497 for the second.

Compared with FPPISYLHAIS [MVD_Y276_N278H], GVTLLYYGRDN [ADGRD1_Y85_Y89D] is higher in phosphorylation enrichment: 0.565 for the first, 1.01 for the second.

First: SLGSPYGQPPC [PDLIM4_Y137_R142C]
Second: DEYLEHRRIVG [FAM221A_Y20_Y20H]
The phosphorylation enrichment of the first is higher: 0.576 for the first, 0.489 for the second.

Compared with TNQVICLNPPI [DYNC1H1_Y970_Y970C], DFPGNYSGYDD [POLR1C_Y33] is higher in phosphorylation enrichment: 0.495 for the first, 0.573 for the second.

Compared with WYQTKYEELQI [KRT6B_Y360], AFPVSYSSPGA [RET_Y687_S690P] is lower in phosphorylation enrichment: 0.649 for the first, 0.422 for the second.

Compared with RFVVLYDAELT [ERCC4_Y581_YF], VLTSKYLGGGG [HBA1_Y141_R142L] is lower in phosphorylation enrichment: 0.91 for the first, 0.32 for the second.

Going from AGAIIYTSRFQ [PFAS_Y538] to ALAHKYRGGGG [HBD_Y146_H147R], the phosphorylation enrichment falls from 0.76 to 0.333.

Going from EYQLPYYNMVP [BMPR1A_Y457] to EKFVPYFDLFM [IPO5_Y530_YF], the phosphorylation enrichment falls from 3.23 to 0.581.

Going from KGRGEYFAIKA [PRKCD_Y374] to KVASVYEALGF [NT5C_Y65_P68L], the phosphorylation enrichment rises from 0.614 to 8.84.

Going from FADIAYNYRRG [PAH_Y166_H170R] to RKKEEYKMAPF [F8_Y1990_L1994P_YF], the phosphorylation enrichment falls from 0.452 to 0.373.

First: LADMNYVHRDL [EPHB2_Y742]
Second: QPGTDYKIFRF [FN1_Y1970_L1974R_YF]
The phosphorylation enrichment of the first is lower: 0.916 for the first, 1.18 for the second.

First: QSSALYEDCFL [ASS1_Y83_R86C_YF]
Second: HKLSYNEYDFE [BTK_Y40_Y40N]
The phosphorylation enrichment of the first is higher: 2.28 for the first, 0.74 for the second.

In the case of SVTCRYSPALN [TP53_Y126_T125R], the phosphorylation enrichment is reported as 0.392.

Biological target: Jak2 (UniProt O60674)
Experiment: as above

Jak2, sequence (O60674 whole entry, looked up): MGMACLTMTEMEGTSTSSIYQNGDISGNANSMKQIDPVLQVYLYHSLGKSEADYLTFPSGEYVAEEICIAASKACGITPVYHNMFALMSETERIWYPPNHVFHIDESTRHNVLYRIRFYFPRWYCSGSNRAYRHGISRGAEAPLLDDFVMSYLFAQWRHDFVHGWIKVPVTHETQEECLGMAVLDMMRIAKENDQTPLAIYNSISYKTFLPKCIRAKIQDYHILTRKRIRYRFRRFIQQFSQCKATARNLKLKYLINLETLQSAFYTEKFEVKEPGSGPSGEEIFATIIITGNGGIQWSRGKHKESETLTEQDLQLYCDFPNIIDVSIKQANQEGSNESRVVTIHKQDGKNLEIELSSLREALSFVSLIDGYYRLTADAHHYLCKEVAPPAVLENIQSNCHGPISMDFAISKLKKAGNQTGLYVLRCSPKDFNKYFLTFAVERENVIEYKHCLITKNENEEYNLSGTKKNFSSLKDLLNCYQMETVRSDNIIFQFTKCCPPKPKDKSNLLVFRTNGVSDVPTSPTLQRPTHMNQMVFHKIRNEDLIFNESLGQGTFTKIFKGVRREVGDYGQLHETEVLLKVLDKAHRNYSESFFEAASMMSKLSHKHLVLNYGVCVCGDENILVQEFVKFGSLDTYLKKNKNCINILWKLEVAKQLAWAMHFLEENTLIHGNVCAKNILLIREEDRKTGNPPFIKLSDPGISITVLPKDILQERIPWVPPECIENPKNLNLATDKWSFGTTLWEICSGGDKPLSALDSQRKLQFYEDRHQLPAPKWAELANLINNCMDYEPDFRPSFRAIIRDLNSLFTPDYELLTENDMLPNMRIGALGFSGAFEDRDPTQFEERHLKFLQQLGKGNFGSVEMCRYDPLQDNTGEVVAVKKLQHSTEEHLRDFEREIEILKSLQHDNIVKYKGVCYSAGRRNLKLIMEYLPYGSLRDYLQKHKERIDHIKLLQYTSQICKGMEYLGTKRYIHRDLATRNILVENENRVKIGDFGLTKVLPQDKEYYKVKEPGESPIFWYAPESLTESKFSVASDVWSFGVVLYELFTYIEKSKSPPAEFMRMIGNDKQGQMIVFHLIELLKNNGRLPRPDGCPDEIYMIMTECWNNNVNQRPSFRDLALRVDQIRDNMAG

Compared with QLHEHCKIHKE [NSMAF_Y626_Y626C], QPRDIYHQTWA [GBA_Y244_G241R] is higher in phosphorylation enrichment: 0.666 for the first, 0.787 for the second.

Compared with TKHTFYKQPMF [GBA_Y451_D448H], KAPPTYDNVLQ [CYP3A4_Y347_T349N] is higher in phosphorylation enrichment: 0.49 for the first, 0.514 for the second.

Compared with RGRKVYLEGGF [PRIM2_Y201_D204G], NTFEKYLEEEF [TF_Y669_G671E_YF] is higher in phosphorylation enrichment: 0.796 for the first, 1.17 for the second.

Compared with FPPISYLHAIS [MVD_Y276_N278H], GVTLLYYGRDN [ADGRD1_Y85_Y89D] is higher in phosphorylation enrichment: 0.793 for the first, 1.39 for the second.

Compared with SLGSPYGQPPC [PDLIM4_Y137_R142C], DEYLEHRRIVG [FAM221A_Y20_Y20H] is lower in phosphorylation enrichment: 0.568 for the first, 0.526 for the second.

Compared with TNQVICLNPPI [DYNC1H1_Y970_Y970C], DFPGNYSGYDD [POLR1C_Y33] is higher in phosphorylation enrichment: 0.892 for the first, 1.17 for the second.

First: WYQTKYEELQI [KRT6B_Y360]
Second: AFPVSYSSPGA [RET_Y687_S690P]
The phosphorylation enrichment of the first is higher: 1.15 for the first, 0.508 for the second.

Compared with RFVVLYDAELT [ERCC4_Y581_YF], VLTSKYLGGGG [HBA1_Y141_R142L] is lower in phosphorylation enrichment: 1.72 for the first, 0.444 for the second.

Compared with AGAIIYTSRFQ [PFAS_Y538], ALAHKYRGGGG [HBD_Y146_H147R] is lower in phosphorylation enrichment: 0.686 for the first, 0.351 for the second.

First: EYQLPYYNMVP [BMPR1A_Y457]
Second: EKFVPYFDLFM [IPO5_Y530_YF]
The phosphorylation enrichment of the first is higher: 9.58 for the first, 1.32 for the second.

Compared with KGRGEYFAIKA [PRKCD_Y374], KVASVYEALGF [NT5C_Y65_P68L] is lower in phosphorylation enrichment: 0.702 for the first, 0.595 for the second.

Compared with FADIAYNYRRG [PAH_Y166_H170R], RKKEEYKMAPF [F8_Y1990_L1994P_YF] is lower in phosphorylation enrichment: 0.529 for the first, 0.316 for the second.

Compared with LADMNYVHRDL [EPHB2_Y742], QPGTDYKIFRF [FN1_Y1970_L1974R_YF] is higher in phosphorylation enrichment: 0.916 for the first, 1.64 for the second.

First: QSSALYEDCFL [ASS1_Y83_R86C_YF]
Second: HKLSYNEYDFE [BTK_Y40_Y40N]
The phosphorylation enrichment of the first is higher: 1.96 for the first, 0.968 for the second.

SVTCRYSPALN [TP53_Y126_T125R] was tested, and the phosphorylation enrichment was 0.805.

Biological target: MERTK (UniProt Q12866)
Experiment: as above

MERTK, sequence (Q12866 whole entry, looked up): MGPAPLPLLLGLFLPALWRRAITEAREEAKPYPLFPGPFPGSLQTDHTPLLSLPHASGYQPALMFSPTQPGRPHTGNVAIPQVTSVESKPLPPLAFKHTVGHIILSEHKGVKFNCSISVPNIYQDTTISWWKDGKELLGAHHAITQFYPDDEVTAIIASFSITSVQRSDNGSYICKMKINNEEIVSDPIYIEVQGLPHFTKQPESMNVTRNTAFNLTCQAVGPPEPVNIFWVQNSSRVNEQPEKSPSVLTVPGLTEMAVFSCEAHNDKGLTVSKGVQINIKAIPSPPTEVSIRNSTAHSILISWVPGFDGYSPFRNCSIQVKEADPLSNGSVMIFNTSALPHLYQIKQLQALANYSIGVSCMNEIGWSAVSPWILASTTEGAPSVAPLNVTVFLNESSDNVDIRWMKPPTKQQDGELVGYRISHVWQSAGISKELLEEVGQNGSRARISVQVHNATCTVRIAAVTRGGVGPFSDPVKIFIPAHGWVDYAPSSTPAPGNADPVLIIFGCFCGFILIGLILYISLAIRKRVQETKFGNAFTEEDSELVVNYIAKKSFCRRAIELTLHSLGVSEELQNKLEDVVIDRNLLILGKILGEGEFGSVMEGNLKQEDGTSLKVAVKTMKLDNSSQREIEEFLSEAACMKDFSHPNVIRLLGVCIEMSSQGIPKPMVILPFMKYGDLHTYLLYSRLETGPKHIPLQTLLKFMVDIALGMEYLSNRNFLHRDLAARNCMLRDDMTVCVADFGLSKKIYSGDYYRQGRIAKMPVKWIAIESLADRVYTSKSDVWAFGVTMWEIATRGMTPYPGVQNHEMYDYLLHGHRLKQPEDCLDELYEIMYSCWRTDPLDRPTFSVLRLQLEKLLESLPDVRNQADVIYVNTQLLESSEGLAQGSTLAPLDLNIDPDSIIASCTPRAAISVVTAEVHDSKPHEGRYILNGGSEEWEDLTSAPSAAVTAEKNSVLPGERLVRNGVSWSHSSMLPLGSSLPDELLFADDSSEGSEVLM

Compared with QLHEHCKIHKE [NSMAF_Y626_Y626C], QPRDIYHQTWA [GBA_Y244_G241R] is higher in phosphorylation enrichment: 0.629 for the first, 3.54 for the second.

Compared with TKHTFYKQPMF [GBA_Y451_D448H], KAPPTYDNVLQ [CYP3A4_Y347_T349N] is higher in phosphorylation enrichment: 0.441 for the first, 1.22 for the second.

Compared with RGRKVYLEGGF [PRIM2_Y201_D204G], NTFEKYLEEEF [TF_Y669_G671E_YF] is lower in phosphorylation enrichment: 0.972 for the first, 0.426 for the second.

Going from FPPISYLHAIS [MVD_Y276_N278H] to GVTLLYYGRDN [ADGRD1_Y85_Y89D], the phosphorylation enrichment rises from 0.544 to 0.841.

Going from SLGSPYGQPPC [PDLIM4_Y137_R142C] to DEYLEHRRIVG [FAM221A_Y20_Y20H], the phosphorylation enrichment falls from 0.39 to 0.38.

Going from TNQVICLNPPI [DYNC1H1_Y970_Y970C] to DFPGNYSGYDD [POLR1C_Y33], the phosphorylation enrichment rises from 0.405 to 0.62.

First: WYQTKYEELQI [KRT6B_Y360]
Second: AFPVSYSSPGA [RET_Y687_S690P]
The phosphorylation enrichment of the first is lower: 0.437 for the first, 0.512 for the second.

Going from RFVVLYDAELT [ERCC4_Y581_YF] to VLTSKYLGGGG [HBA1_Y141_R142L], the phosphorylation enrichment falls from 0.979 to 0.347.

First: AGAIIYTSRFQ [PFAS_Y538]
Second: ALAHKYRGGGG [HBD_Y146_H147R]
The phosphorylation enrichment of the first is higher: 0.568 for the first, 0.309 for the second.

Compared with EYQLPYYNMVP [BMPR1A_Y457], EKFVPYFDLFM [IPO5_Y530_YF] is lower in phosphorylation enrichment: 7.06 for the first, 0.444 for the second.

First: KGRGEYFAIKA [PRKCD_Y374]
Second: KVASVYEALGF [NT5C_Y65_P68L]
The phosphorylation enrichment of the first is lower: 0.381 for the first, 7.59 for the second.

First: FADIAYNYRRG [PAH_Y166_H170R]
Second: RKKEEYKMAPF [F8_Y1990_L1994P_YF]
The phosphorylation enrichment of the first is higher: 0.429 for the first, 0.422 for the second.

Compared with LADMNYVHRDL [EPHB2_Y742], QPGTDYKIFRF [FN1_Y1970_L1974R_YF] is higher in phosphorylation enrichment: 0.796 for the first, 1.17 for the second.

Compared with QSSALYEDCFL [ASS1_Y83_R86C_YF], HKLSYNEYDFE [BTK_Y40_Y40N] is lower in phosphorylation enrichment: 4.12 for the first, 0.427 for the second.

For SVTCRYSPALN [TP53_Y126_T125R], the phosphorylation enrichment was 0.514.

Tested on: c-Abl (mouse)
Experiment: as above

First: QLHEHCKIHKE [NSMAF_Y626_Y626C]
Second: QPRDIYHQTWA [GBA_Y244_G241R]
The phosphorylation enrichment of the first is lower: 0.728 for the first, 1.15 for the second.

Going from TKHTFYKQPMF [GBA_Y451_D448H] to KAPPTYDNVLQ [CYP3A4_Y347_T349N], the phosphorylation enrichment falls from 0.522 to 0.511.

First: RGRKVYLEGGF [PRIM2_Y201_D204G]
Second: NTFEKYLEEEF [TF_Y669_G671E_YF]
The phosphorylation enrichment of the first is higher: 0.719 for the first, 0.692 for the second.

Going from FPPISYLHAIS [MVD_Y276_N278H] to GVTLLYYGRDN [ADGRD1_Y85_Y89D], the phosphorylation enrichment rises from 0.829 to 0.894.

First: SLGSPYGQPPC [PDLIM4_Y137_R142C]
Second: DEYLEHRRIVG [FAM221A_Y20_Y20H]
The phosphorylation enrichment of the first is higher: 0.817 for the first, 0.434 for the second.

Compared with TNQVICLNPPI [DYNC1H1_Y970_Y970C], DFPGNYSGYDD [POLR1C_Y33] is lower in phosphorylation enrichment: 1.17 for the first, 0.976 for the second.

Going from WYQTKYEELQI [KRT6B_Y360] to AFPVSYSSPGA [RET_Y687_S690P], the phosphorylation enrichment falls from 0.741 to 0.572.

First: RFVVLYDAELT [ERCC4_Y581_YF]
Second: VLTSKYLGGGG [HBA1_Y141_R142L]
The phosphorylation enrichment of the first is higher: 0.876 for the first, 0.375 for the second.

Compared with AGAIIYTSRFQ [PFAS_Y538], ALAHKYRGGGG [HBD_Y146_H147R] is lower in phosphorylation enrichment: 0.72 for the first, 0.471 for the second.

Going from EYQLPYYNMVP [BMPR1A_Y457] to EKFVPYFDLFM [IPO5_Y530_YF], the phosphorylation enrichment falls from 3 to 0.858.

First: KGRGEYFAIKA [PRKCD_Y374]
Second: KVASVYEALGF [NT5C_Y65_P68L]
The phosphorylation enrichment of the first is higher: 0.769 for the first, 0.697 for the second.

First: FADIAYNYRRG [PAH_Y166_H170R]
Second: RKKEEYKMAPF [F8_Y1990_L1994P_YF]
The phosphorylation enrichment of the first is higher: 0.502 for the first, 0.371 for the second.

Going from LADMNYVHRDL [EPHB2_Y742] to QPGTDYKIFRF [FN1_Y1970_L1974R_YF], the phosphorylation enrichment rises from 0.923 to 1.74.

Compared with QSSALYEDCFL [ASS1_Y83_R86C_YF], HKLSYNEYDFE [BTK_Y40_Y40N] is lower in phosphorylation enrichment: 1.15 for the first, 0.593 for the second.

For SVTCRYSPALN [TP53_Y126_T125R], the phosphorylation enrichment was 0.611.
